Assay results published in the Human Domainome abundance scans (Beltran et al. 2025).

B1: Ankyrin-3, residues 4094 to 4171; numbered along this chain, Q12955 (parent)
chain: MAIVADHLGLSWTELARELNFSVDEINQIRVENPNSLISQSFMLLKKWVTRDGKNATTDALTSVLTKINRIDIVTLLE

Variants of: B1
Test: abundance fitness (aPCA) (normalised: wild type 0, dead -1); higher = more abundant; growth selection in yeast, the domain comes from the species named
Conditions: Homo sapiens

Abundance fitness: each site, then its substitutions
L19: R -0.79; P -0.855; V -0.651; A -0.591; H -0.694; S -1.05; I -0.333; M -0.33; T -0.927; C -0.793; Q -0.781; G -1.01; W -0.494
S22: C 0.048; Y -0.646
E25: Q -0.251; N -0.63; L -0.862; F -0.771; P -0.957; A -0.457; K -0.808; V -0.344; T -0.334; M -0.739; D 0.03; W -0.887; Y -0.792; R -0.947; H -0.859; I -0.754; G -0.826
E18: K -0.532; F -0.451; Y -0.605; V -0.148; W -0.825; T -0.427; R -1.09; G -0.455; H -0.317; C -0.531; Q -0.388; A -0.187; M -0.339; I -0.721; D -0.614; S -0.625
I26: Q -0.594; T -0.755; K -0.953; W -0.871; E -0.848; P -0.894; D -0.886; C -0.561; M -0.544; L -0.96; V -0.076; R -0.522; S -0.805
Q28: H -0.202; K -0.134; L -0.254; G -0.264; D 0.044; C -0.318; I -0.479; M -0.179; A 0.044; E 0.035; F -0.479
R17: S -0.08; N 0.231; W -0.101; V -0.161; K 0.143; P -0.869; Q -0.273; L -0.06; T -0.037; M -0.053; Y -0.061
D24: C -0.342; H -0.068; E 0.053; N -0.197; I -0.4; F -0.621; S -0.199; M -0.424; Y -0.228; V -0.341; L -0.272; P -0.352; W -0.435; T -0.152; Q 0.063; K -0.195
N20: L -0.191; F -0.196; K -0.169; C -0.348; I -0.609; P -1; Q -0.329; G -0.081; R -0.18; H -0.035; V -0.608; E -0.101; Y -0.348; W -0.902; D 0.093; A -0.162; M -0.113
N27: R -0.11; E -0.191; C -0.238; G -0.798; L -0.383; F -0.244; A -0.082; Y -0.149; W -0.35; H -0.06; Q 0.012; S -0.125; D -0.272; K -0.112; P -0.926; T -0.174; V -0.373
F21: W -0.978; M -0.561; V -0.81; Q -0.694; S -0.893; G -0.7; A -0.842; T -0.869; I -0.665; N -0.57; E -0.997; P -0.708; C -1; H -0.842; Y -0.358; D -0.949
V23: E -0.04; S -0.061; H 0.02; N 0.097; F -0.142; G -0.004; Q 0.16; K -0.142; R -0.027; T -0.023; Y -0.534; D -0.335; A -0.12; I -0.073; L -0.048; C -0.22; P -0.034; W -0.049
